The text below walks through data of PMC2265480, “Identification of Synaptic Targets of Drosophila Pumilio”.

Data set [1] has as its target T1, GST-Pum (Pumilio RNA-binding domain) (Drosophila, UniProt P25822 1091-1533).
T1 sequence: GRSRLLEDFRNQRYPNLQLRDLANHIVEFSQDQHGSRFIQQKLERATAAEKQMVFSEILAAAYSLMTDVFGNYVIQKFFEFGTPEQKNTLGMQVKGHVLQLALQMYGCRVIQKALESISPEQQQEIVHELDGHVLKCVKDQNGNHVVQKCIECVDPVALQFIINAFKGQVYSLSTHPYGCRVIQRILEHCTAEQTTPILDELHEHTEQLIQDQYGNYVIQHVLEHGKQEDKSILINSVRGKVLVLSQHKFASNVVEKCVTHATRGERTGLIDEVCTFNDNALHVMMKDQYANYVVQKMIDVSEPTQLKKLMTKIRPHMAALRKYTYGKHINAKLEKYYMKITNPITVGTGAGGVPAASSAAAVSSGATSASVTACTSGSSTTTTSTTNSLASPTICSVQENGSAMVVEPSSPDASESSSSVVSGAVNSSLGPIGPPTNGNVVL
The experiment in a line: EMSA. Conditions: 5:1 protein:RNA, 10 mM Hepes/KOH pH 7.4, 50 mM KCl, 3 mM MgCl2, 1 mM EDTA, 2 mM DTT, 0.1 mg/ml BSA, 0.1 mg/ml yeast tRNA, 0.01% Tween-20, 0.2 U RNasin, 10% glycerol, 10 ul ….

For data set [2], the target named is T2, GST-Pum (Pumilio RNA-binding domain) (Drosophila) (UniProt P25822).
T2 sequence: T1 sequence
Kind of data set: EMSA. The settings on record: 5:1 protein:RNA (50 fmol:10 fmol); one complex; 10 mM Hepes/KOH pH 7.4, 50 mM KCl, 3 mM MgCl2, 1 mM EDTA, 2 mM DTT, 0.1 mg/ml BSA, 0.1 mg/ml yeast tRNA, 0.01% Tween-20, 0.2 U RNasin, 10% glycerol, 10 ul ….

Data set [3] concerns the target T1, GST-Pum (Pumilio RNA-binding domain). The experiment in a line: EMSA; up to 50 fmol protein:10 fmol RNA; 10 mM Hepes/KOH pH 7.4, 50 mM KCl, 3 mM MgCl2, 1 mM EDTA, 2 mM DTT, 0.1 mg/ml BSA, 0.1 mg/ml yeast tRNA, 0.01% Tween-20, 0.2 U RNasin, 10% glycerol, 10 ul, 20 min room temperature; 5% native gel in 1x TBE. Conditions: protein: recombinant; tags: N-terminal GST; label: radiolabel.

For the molecule dlg1 isoform C 3'UTR 744-829, in data set [1] (not bound even at high molar ratio), the binding signal was determined as 0 % bound.

For “AUUAUUUUGUUGUCGAAAAUUGUACAUAAGCC [hb NRE2]”, in data set [2], the binding signal is 67.9 % bound.

In data set [1] (2 sites), mam 3'UTR 642-1110 registered a binding signal of 73.8 % bound.

Take Csp 3'UTR 1218-1545: the binding signal in data set [1] (2 sites) worked out at 57.2 % bound.

Turning to shn 3'UTR 809-1013, the binding signal in data set [1] (2 sites) is 59 % bound.

Turning to Gad1 3'UTR 704-973, the binding signal in data set [1] (2 sites) was 35.9 % bound.

In data set [1], EP2237 3'UTR 340-514 had a binding signal of 20.5 % bound.

On to Ace 3'UTR 722-1095, for which, in data set [1], the binding signal stood at 33 % bound.

The molecule dlg1 (isoforms A and D) 3'UTR 1485-1539 gave a binding signal in data set [1] (one complex) of 56.9 % bound.

Molecule AP-1gamma 3'UTR 85-191 registered a binding signal in data set [1] (one complex) of 21.8 % bound.

For the molecule GGUAGUGCAUACAACUUCCUU (ssRNA) [CRS random control RNA], the binding result in data set [3] is “no binding”.
